Results taken from FireProtDB (doi:10.1021/bi00213a031).
Values joined by “and” are separate entries in the source; they are usually repeats but may differ in a detail not shown here. Identical values can stand only once.

Settings: Escherichia coli (strain K12), pH 7.8, 25 °C, Urea, phosphate 58 mM, transition: 3, whole UniProt chain shown

B1: Tryptophan synthase alpha chain wild type, P0A877 (protein)
chain: MERYESLFAQLKERKEGAFVPFVTLGDPGIEQSLKIIDTLIEAGADALELGIPFSDPLADGPTIQNATLRAFAAGVTPAQCFEMLALIRQKHPTIPIGLLMYANLVFNKGIDEFYAQCEKVGVDSVLVADVPVEESAPFRQAALRHNVAPIFICPPNADDDLLRQIASYGRGYTYLLSRAGVTGAENRAALPLNHLVAKLKEYNAAPPLQGFGISAPDQVKAAIDAGAAGAISGSAIVKIIEQHINEPEKMLAALKVFVQPMKAATRS
**Q.** Which denaturant m value (Absorbance) does the source give for B1 here?
**A.** 2.8 kcal/mol/M and 1.3 kcal/mol/M

**Q.** What about the “denaturant midpoint (higher = more stable)” value (Absorbance) of the same protein?
**A.** 2.5 M and 3.9 M

**Q.** And the unfolding free energy (Absorbance)?
**A.** 6.8 kcal/mol and 5.1 kcal/mol

**Q.** What about the denaturant m value (CD) of the same protein?
**A.** 2.5 kcal/mol/M and 1.2 kcal/mol/M

**Q.** And the “denaturant midpoint (higher = more stable)” value (CD)?
**A.** 2.5 M and 4 M

**Q.** And the unfolding free energy (CD)?
**A.** 6.2 kcal/mol and 4.6 kcal/mol
